In experiment [1] the target is T1, HER2 (Homo sapiens, UniProt P04626). Kind of experiment: HER2 tyrosine phosphorylation ELISA, antibodies with or without lapatinib. In kind it is cell-based. Also noted: endogenous in cells; host or cells: N87 gastric cancer cells; ZR75-30 breast cancer cells. The following applies: 24 hours, without lapatinib. (In general: An ELISA detects its analyte on a solid surface through an enzyme-linked reagent.)

Experiment [2] concerns the target T2, HER3 (extracellular domain) (Homo sapiens, UniProt P21860).
T2 construct: recombinant soluble EGFR, HER2, or the extracellular domain of HER3
Put plainly: ELISA binding specificity on recombinant soluble EGFR, HER2, HER3. The following applies: plate coated with 1 μg/ml recombinant soluble EGFR, HER2 or HER3 extracellular domain. The method, then:
(§1) The average OD values of triplicates are presented. The values for egFR are superimposed on the values for HER2. […] EGFR, HER2 or HER3-transfected SP 2/0 cells were stained with 1 μg/ml of purified antibody, followed by PE-goat anti-mouse IgG.
(§2) An ELISA plate was coated with 1 μg/ml of recombinant soluble EGFR, HER2, or the extracellular domain of HER3.

In experiment [3] the target is T3, recombinant soluble HER3 (Homo sapiens, UniProt P21860).
T3 construct: coated with 1 μg/ml of recombinant soluble HER3
Kind of experiment: ELISA for blocking of NRG1 binding to HER3. Conditions: 100 ng/ml biotin-conjugated NRG1, increasing antibody concentrations. The text has this:
(§3) The binding of NRG1 to HER3 (vertical axis) was detected by HRP-streptavidin. […] NRG1 binding was detected by PE-streptavidin. The mean fluorescent intensities (MFI) of NRG1 bound are presented.
(§4) The binding of NRG1 to HER3 was detected by HRP-streptavidin. […] Thus, the 1A5 antibody is herein referred to as a ligand-independent antibody. […] Thus, the 3D4 antibody is herein referred to as a ligand-dependent antibody. […] NRG1 binding was detected by PE-streptavidin.

For experiment [4], the target named is T4, HER3 (Homo sapiens, UniProt P21860). Put plainly: Functional screen for inhibition of ligand-induced HER3 activation. Format: cell-based. Also on record: endogenous in cells; host or cells: N87, BT474, ZR75-30, Panc 2.03, A549 and a panel of human cancer cell lines. The following applies: human cancer cell lines. The text has this: Another HER3 antibody was generated by immunizing mice with human HER3 expressing SP 2/0 cells. […] Thus, the 3D4 antibody is a ligand-dependent antibody.

Experiment [5] has as its system A549 human lung cancer xenograft. Kind of experiment: A549 human lung cancer xenograft model. Format: in vivo. (Xenograft models place foreign cells or tissue in a host animal.)
The target of experiment [6] is T3, recombinant soluble HER3. Put plainly: Sandwich ELISA for epitopes (1A5 capture, HRP-3D4 detection). Format: binding. The following applies: plate coated with 2 μg/ml 1A5, 200 ng/ml HRP-conjugated 3D4. The method, then:
An ELISA plate was coated with 2 μg/ml of purified 1A5 and then incubated with indicated concentrations of recombinant soluble HER3 in the presence of 200 ng/ml HRP-conjugated 3D4. The binding of 3D4 to HER3 was detected by chemiluminescence substrate. The average counts per second of triplicates are presented.
An ELISA plate was coated with 2 μg/ml of purified 1A5 and then incubated with increasing concentrations of HER3 in the presence of 200 ng/ml HRP-conjugated 3D4. The binding of 3D4 antibody to HER3 was detected by chemiluminescence.

The target in experiment [7] is T5, HER3-transfected SP 2/0 cells (Homo sapiens, UniProt P21860).
T5 construct: expressed in transfected cells; host or cells: SP 2/0 cells
Kind of experiment: Flow cytometry for blocking of NRG1 binding to HER3. Conditions: 100 ng/ml biotin-conjugated NRG1, increasing antibody concentrations.
Text: as §3, §4
On the technique in general: A flow cytometer gives signals particle by particle.

Experiment [8] has as its target T1, HER2. Kind of experiment: NRG1-induced phosphorylation of HER2 in pancreatic cancer cell lines. In kind it is cell-based. Also noted: endogenous in cells.
Experiment [9] concerns the target T4, HER3. Kind of experiment: HER3 tyrosine phosphorylation ELISA, antibodies with or without tyrosine kinase inhibitor. Format: cell-based. Also on record: endogenous in cells; host or cells: N87; tyrosine phosphorylation of HER3: dose or concentration left out as unconfirmed. The following applies: 24 hours; for tyrosine phosphorylation levels of HER3: 20 μg/ml antibody.

The target in experiment [10] is EGFR (Homo sapiens, UniProt P00533). Kind of experiment: EGFR tyrosine phosphorylation ELISA, antibodies with or without tyrosine kinase inhibitor. The following applies: 24 hours.
The target in experiment [11] is T4, HER3. Kind of experiment: NRG1-induced phosphorylation of HER3 in pancreatic cancer cell lines. In kind it is cell-based. Also on record: endogenous in cells; host or cells: N87, BT474, ZR75-30, Panc 2.03, A549 and a panel of human cancer cell lines.
In experiment [12] the target is T5, HER3-transfected SP 2/0 cells. Kind of experiment: Flow cytometry binding specificity on transfected SP 2/0 cells. The following applies: EGFR, HER2 or HER3 transfected SP2/0 cells, 1 μg/ml purified antibody. The protocol:
as §1, §2

“Also recorded” adds a separate entry of the source.

T5 sequence (P21860 20-1342): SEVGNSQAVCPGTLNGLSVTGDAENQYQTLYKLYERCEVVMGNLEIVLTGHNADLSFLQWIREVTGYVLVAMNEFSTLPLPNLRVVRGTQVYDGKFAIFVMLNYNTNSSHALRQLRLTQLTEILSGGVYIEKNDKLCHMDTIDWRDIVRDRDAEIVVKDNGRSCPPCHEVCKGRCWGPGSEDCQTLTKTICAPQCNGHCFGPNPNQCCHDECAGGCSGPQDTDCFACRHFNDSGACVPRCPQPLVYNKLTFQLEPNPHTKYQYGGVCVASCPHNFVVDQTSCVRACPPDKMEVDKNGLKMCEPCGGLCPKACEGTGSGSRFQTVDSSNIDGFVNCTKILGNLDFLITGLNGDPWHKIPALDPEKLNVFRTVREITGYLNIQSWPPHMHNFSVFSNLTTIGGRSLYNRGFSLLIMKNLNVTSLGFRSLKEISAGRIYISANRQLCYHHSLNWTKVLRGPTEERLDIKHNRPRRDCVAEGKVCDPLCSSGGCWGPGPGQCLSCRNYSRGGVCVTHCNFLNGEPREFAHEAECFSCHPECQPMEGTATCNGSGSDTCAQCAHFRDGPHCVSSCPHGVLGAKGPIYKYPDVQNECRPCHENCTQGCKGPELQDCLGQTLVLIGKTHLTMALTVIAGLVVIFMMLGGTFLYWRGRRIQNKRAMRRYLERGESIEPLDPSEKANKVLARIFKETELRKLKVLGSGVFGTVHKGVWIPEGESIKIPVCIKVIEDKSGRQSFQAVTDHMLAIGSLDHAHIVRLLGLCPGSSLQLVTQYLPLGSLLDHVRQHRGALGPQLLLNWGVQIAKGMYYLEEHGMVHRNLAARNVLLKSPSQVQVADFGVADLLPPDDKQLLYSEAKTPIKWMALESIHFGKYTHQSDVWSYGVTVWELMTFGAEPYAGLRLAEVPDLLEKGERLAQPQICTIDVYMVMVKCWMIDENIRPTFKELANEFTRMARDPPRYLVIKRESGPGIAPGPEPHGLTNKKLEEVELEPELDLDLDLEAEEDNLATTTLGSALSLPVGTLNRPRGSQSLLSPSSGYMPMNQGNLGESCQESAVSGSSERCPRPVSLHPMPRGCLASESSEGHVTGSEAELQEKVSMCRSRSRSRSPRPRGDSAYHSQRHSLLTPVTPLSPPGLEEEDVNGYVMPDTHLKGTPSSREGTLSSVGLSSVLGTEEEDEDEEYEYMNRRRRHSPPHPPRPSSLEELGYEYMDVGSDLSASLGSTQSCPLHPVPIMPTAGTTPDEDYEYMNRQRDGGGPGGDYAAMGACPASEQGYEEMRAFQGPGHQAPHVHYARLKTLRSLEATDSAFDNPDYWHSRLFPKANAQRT
T4 sequence (P21860 20-1342): as above
T3 sequence (P21860 20-643 limits assumed): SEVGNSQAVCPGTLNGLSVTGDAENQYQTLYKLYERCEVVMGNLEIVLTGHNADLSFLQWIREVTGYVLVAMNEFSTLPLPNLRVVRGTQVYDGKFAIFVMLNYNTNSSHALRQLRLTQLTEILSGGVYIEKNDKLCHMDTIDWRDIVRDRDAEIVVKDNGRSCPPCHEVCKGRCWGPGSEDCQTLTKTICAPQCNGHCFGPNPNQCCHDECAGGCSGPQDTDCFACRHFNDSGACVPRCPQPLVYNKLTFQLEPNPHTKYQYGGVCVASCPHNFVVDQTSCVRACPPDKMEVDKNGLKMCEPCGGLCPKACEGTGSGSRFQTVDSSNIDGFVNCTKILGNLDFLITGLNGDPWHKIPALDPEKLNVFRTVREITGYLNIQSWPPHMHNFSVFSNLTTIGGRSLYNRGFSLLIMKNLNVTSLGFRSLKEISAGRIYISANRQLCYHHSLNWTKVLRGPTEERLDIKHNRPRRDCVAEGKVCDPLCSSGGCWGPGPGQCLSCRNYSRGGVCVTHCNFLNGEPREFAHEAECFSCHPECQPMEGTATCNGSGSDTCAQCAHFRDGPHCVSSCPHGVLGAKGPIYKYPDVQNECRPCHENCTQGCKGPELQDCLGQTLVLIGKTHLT
T2 sequence (P21860 20-643 limits assumed): as above

B1: 3D4: ligand-dependent HER3 antibody; light chain variable region SEQ ID NO:9, heavy chain variable region SEQ ID NO:10 (antibody, V domains shown)
VH: MGWSRIFLFLLSIIAGVHCQVQLQQSGPELVKPGASVRISCKASGYTFTNYFLHWMKQRPGQGLEWIGWIYPGNVNTKYSEKFKGKATLTADKSSSTAYMQLSSLTSEDSAVYFCARSTYYSMDYWGQGTSVTVSS
VL: METDTLLLWVLLLWVPGSTGDIVLTQSPASLAVSLGQRATISCRASESVDSYGNSFMNWYQQKPGQPPKVLIYRASNLESGIPARFSGSGSRTDFTLTITPVEADDVATYYCQQSYEDPPTFGGGTKLEIK
As for B1, the “tyrosine phosphorylation level of HER2” value in experiment [1] (N87 cells) is “did not affect the level of tyrosine phosphorylation for EGFR or HER2”. The “tyrosine phosphorylation levels of HER2” value in [1] (ZR75-30 cells, 20 μg/ml antibody) is reported as “did not affect tyrosine phosphorylation levels of HER2”. The “binding specificity by ELISA” value in [2] is given as “specifically bind HER3; also recorded: specific binding”. Further, the “blocking of NRG1 binding to HER3 (ELISA)” value in [3] is recorded as “inhibited binding of NRG1 to HER3; also recorded: blocks ligand binding to HER3”. Moreover, the “inhibition of ligand-induced HER3 activation” value in [4] is listed as “ability to inhibit ligand-induced HER3 activation in human cancer cells lines”. Besides, the tumor volume entry is given as “reduced tumor volume” in experiment [5] (antibodies without Erbitux) and “reduced tumor volume more than administration of Erbitux alone” in [5] (in combination with Erbitux). For the same molecule, the “epitopes of HER3 bound” value in [6] is “bind different epitopes of HER3; also recorded: recognize different epitopes on HER3”. Also, the “blocking of NRG1 binding to HER3 (flow cytometry)” value in experiment [7] is reported as “blocked NRG1 binding to HER3; also recorded: blocks ligand binding to HER2”. For the same molecule, in experiment [8], the “NRG1-induced phosphorylation of HER2” value is listed as “inhibited NRG1-induced phosphorylation of HER2; also recorded: inhibited NRG-1-induced phosphorylation of HER2”. Also, the “tyrosine phosphorylation levels of HER3, effect of adding Erlotinib” value in experiment [9] (A549 cells, 20 μg/ml antibody with 100 nM Erlotinib) is “enhanced”. In addition, the “tyrosine phosphorylation levels of HER3” value was “reduced the tyrosine-phosphorylation levels of HER3” in [9] (A549 cells, without Erlotinib) and “reduced the tyrosine phosphorylation levels of HER3” in experiment [9] (ZR75-30 cells, without lapatinib). In [9] (N87 cells, without lapatinib), the “tyrosine phosphorylation of HER3” value was “reduced the tyrosine phosphorylation of HER3”. Besides, the “tyrosine phosphorylation of HER3, effect of adding lapatinib” value in [9] (N87 cells, with 100 nM lapatinib) was “enhanced”. In addition, the “tyrosine phosphorylation levels of HER3, effect of adding lapatinib” value in experiment [9] (ZR75-30 cells, 20 μg/ml antibody with 100 nM lapatinib) is on record as “enhanced”. In addition, the “tyrosine phosphorylation levels of EGFR” value in experiment [10] (A549 cells, 20 μg/ml antibody, without Erlotinib) is listed as “did not affect tyrosine phosphorylation levels of EGFR”. The “tyrosine phosphorylation level of EGFR” value in experiment [10] (N87 cells, 20 mg/ml antibody, without lapatinib) is “did not affect the level of tyrosine phosphorylation for EGFR or HER2”. For the same molecule, the “NRG1-induced phosphorylation of HER3” value in [11] is “inhibited NRG1-induced phosphorylation of HER3; also recorded: inhibited NRG-1 induced phosphorylation of HER3”. The “binding specificity by flow cytometry” value in [12] is recorded as “specifically bind HER3”.

For the origin of these results see patent US9637543B2, “HER3 antibodies and uses thereof” (THE UAB RESEARCH FOUNDATION, priority 2011, dated 2017).
